From patent US20240383983A1 (ABL BIO, published 2024)

Assays:
[1] = target: T1, human B7-H4 expressed on cells (CHOK-1 B7-H4, SK-BR3, CAMA-1, MDA-MB-468, MX-1, OVCAR-3) (human, UniProt Q7Z7D3 25-282); experiment: FACS on SK-BR3 cells, FITC anti-human IgG1 detection; y axis 'Fold of induction'
T1 construct: whole, on cells; also called B7-H4 expressed cell line; B7-H4 positive cancer cell lines
T1 sequence (looked up): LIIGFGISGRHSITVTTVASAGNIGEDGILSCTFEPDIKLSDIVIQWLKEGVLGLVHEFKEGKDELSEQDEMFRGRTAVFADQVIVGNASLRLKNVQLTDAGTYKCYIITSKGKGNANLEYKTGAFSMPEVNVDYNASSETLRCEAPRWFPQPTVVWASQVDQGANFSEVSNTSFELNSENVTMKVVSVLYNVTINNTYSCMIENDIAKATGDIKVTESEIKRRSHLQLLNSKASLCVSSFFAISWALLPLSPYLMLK
Procedure: (§1) To evaluate the tumor antigen binding property, 16E3H3 M1 clone was analyzed for its binding to B7-H4-expressing mammalian cells by FACS. Briefly, B7-H4 positive cell (MX-1, CAMA-1, SK-BR3 and OVCAR-3) or B7-H4 negative cells (PANC-1) were incubated with M40413 antibody. After wash by FACS buffer (1% BSA in PBS), the FITC-anti-human IgG 1 antibody was added to each well and incubated at 4° C. for 45 min. The MFI of FITC was evaluated by FACS Calibur.

[2] = target: T2, Fc fused human B7-H4 protein (human, UniProt Q7Z7D3 29-258, limits assumed); experiment: ELISA, Fc fused human B7-H4 coated at 1 µg/ml, anti-human Fab HRP
T2 construct: Coated on ELISA plates; not shown: Fc part
T2 sequence (looked up): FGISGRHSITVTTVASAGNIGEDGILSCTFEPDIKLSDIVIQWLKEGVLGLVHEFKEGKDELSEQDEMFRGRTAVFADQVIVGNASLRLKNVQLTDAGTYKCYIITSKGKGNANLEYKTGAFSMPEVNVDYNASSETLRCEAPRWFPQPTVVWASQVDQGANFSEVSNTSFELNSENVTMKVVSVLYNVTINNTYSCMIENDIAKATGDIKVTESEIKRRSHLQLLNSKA
Procedure: To evaluate the antigen binding activity of the humanized antibody, 16E3H3 M1 was subjected to ELISA. Briefly, ELISA plates were coated with Fc fused human B7-H4 protein at 1 μg/ml in PBS, 100 ul/well at 4° C. overnight, then blocked with 200 ul/well of 1% BSA in PBS at 37° C. Four fold dilutions of monoclonal antibody starting from 100 nM were added to each well and incubated for 1 hours at 37° C. The plates were washed with PBST (0.05% Tween 20 in PBS) and then incubated with HRP (Horse Radish Peroxidase) conjugated Anti-human Fab for 1 hr at 37° C. The plates were washed with PBST (Tween 20 0.05% in PBS) developed with TMB substrate and analyzed by spectrophotometer at OD 450 nm˜650 nm. As shown FIG. 2. 16E3H3 M1 bound to human B7-H4 with dose dependent manner.

[3] = target: T1, human B7-H4 expressed on cells (CHOK-1 …); experiment: FACS on CAMA-1 cells, FITC anti-human IgG1 detection; y axis 'Fold of induction'
Procedure: as §1

B1: 16E3H3 M1 monospecific antibody (humanized anti-B7-H4 IgG1) (antibody, V domains shown)
VH: QVQLVQSGAEVKKPGASVKVSCKASGYPFTTYGMNWVKQAPGQGLEWMGWIDTYSGVPTYADDFKGRVTMTRDTSISTAYMELSRLRSDDTAVYFCARRSFWYFDVWGAGTTVTVSS
VL: DVVMTQSPLSLPVTLGQPASISCRSSQSLVHSNANTYLHWYLQRPGQSPRLLIYKVSNRFSGVPDRFSGSGSGTDFTLKISRVEAEDVGVYFCSQSTHVPWTFGGGTKVEIKR
notes: Humanized 16E3H3 with G29A in CDR-L1 for PTM removal; also called M40413; 16E3H3 M1 clone
[1]
  EC50 (read off the curve): ~4 nM
[2]
  EC50: 0.079 nM
[3]
  EC50 (read off the curve): ~5 nM
